Source: US20140087995A1 (published 2014)
Numbered stars: 1 amine (or outer) side, 2 acyl side, 3 side chain; on linkers, the order of the positions; unused ones are H or OH. Bridge positions count the residues as written; N and C are the ends. * marks the point of attachment. C20 diacid = O=C(O)CCCCCCCCCCCCCCCCCCC(=O)*; γGlu = O=C(O)[C@H](CCC(=O)[*:2])N[*:1]; AEEA = NCCOCCOCC(=O)O

T1: human calcitonin receptor (human, UniProt P30988 25-474)
T1 sequence (looked up): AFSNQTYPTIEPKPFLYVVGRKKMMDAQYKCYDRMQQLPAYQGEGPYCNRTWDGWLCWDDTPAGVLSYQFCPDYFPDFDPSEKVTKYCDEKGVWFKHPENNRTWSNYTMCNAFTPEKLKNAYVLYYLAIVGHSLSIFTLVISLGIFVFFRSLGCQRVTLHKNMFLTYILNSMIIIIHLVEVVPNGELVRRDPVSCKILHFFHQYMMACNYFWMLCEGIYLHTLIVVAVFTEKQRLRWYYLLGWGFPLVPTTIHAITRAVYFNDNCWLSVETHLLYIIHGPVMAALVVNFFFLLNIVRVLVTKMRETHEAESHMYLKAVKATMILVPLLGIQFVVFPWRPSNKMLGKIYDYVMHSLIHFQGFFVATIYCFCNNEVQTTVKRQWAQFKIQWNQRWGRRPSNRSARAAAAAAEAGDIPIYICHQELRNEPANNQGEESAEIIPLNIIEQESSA

T2: human amylin receptor (amylin 3(a) receptor: human calcitonin receptor with RAMP-3) (human, UniProt P30988 25-474; O60896 24-148, limits assumed)
T2 construct: whole, on cells; Whole cells in the luciferase assay (Assay II a); also called hAmylin-R; hAmylinR
T2 sequence (looked up) 1: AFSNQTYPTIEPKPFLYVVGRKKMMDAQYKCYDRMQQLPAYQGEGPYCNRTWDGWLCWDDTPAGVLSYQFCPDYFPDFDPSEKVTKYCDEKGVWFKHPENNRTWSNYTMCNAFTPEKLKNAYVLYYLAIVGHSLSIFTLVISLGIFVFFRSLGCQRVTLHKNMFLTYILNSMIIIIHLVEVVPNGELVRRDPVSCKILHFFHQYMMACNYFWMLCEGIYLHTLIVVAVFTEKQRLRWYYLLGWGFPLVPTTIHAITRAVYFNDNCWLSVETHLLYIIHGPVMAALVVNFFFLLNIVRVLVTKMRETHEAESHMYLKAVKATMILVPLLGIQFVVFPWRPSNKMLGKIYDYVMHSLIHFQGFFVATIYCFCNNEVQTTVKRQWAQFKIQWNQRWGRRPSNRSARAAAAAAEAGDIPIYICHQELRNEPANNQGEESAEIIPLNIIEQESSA
T2 sequence (looked up) 2: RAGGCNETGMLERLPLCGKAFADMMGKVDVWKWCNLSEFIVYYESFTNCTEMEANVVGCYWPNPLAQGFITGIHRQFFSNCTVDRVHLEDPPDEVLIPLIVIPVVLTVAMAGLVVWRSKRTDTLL


Assays:
[1] = molecular target: T1, human calcitonin receptor; experiment: cell-based or functional assay
[2] = molecular target: T2, human amylin receptor (amylin 3(a) …); experiment: SPA competition binding on membranes of BHK cells with human calcitonin receptor + RAMP-3; displacement of 125I-rat amylin (Assay V)
Experimental: The binding assay was performed using scintillation proximity assay (SPA) beads (RPNQ0001) from PerkinElmer and cell membranes from the Amylin 3(a)/CRE-luc cells (as described in Assay (II)) were used. Membranes were prepared in the following way; the cells were rinsed with PBS and incubated with Versene for approximately 5 min before harvesting. The cells were flushed with PBS and the cell-suspension was centrifuged for 5 min at 1000 rpm. Cells were homogenized (ultrathurrax) in a buffer containing 20 mM Na-HEPES and 10 mM EDTA (pH 7.4) and centrifuged at 20.000 rpm for 15 min. The resulting pellet was resuspended, homogenized and centrifuged (20.000 rpm, 15 min) in a buffer containing 20 mM Na-HEPES and 0.1 mM EDTA (pH 7.4, buffer 2). The resulting pellet was resuspended in buffer 2 and protein concentration was measured (BCA protein Assay, Pierce). The homogenate was kept cold during the whole procedure. The membranes were kept at −80° C. until use. The assay was performed in a 384 well Optiplate (PerkinElmer) in a total volume of 40 ul. Membranes were mixed with SPA beads. Final concentration of membranes 35 ng/μL final and SPA beads was 0.05 mg/well. Test-compounds were dissolved in DMSO and further diluted in assay buffer (50 mM Hepes, pH 7.4, 1 mM CaCl2, 5 mM MgCl₂, 0.1% OA and 0.02% Tween20). […] The final mixture was incubated with shaking at 400 rpm for 120 min at 25° C. prior to centrifugation (1500 rpm, 10 min). Samples were analyzed on TopCounter™ (Packard). The IC₅₀ was calculated using (one site binding competition analysis) GraphPad Prism5 as a measure of receptor affinity.

| Ratio hCT/hAmylin funct. [1] [ratio] | IC50 [2] [pM] | Binder |
| --- | --- | --- |
| 3.6 | 217 | {C20 diacid-γGlu-AEEA-AEEA}-KCNTATCATQRLAEFLRHSSPNFGAIPSSTNVGSNTP-NH2 (disulfide 2-7; SMILES CC[C@H](C)[C@H](NC(=O)[C@H](C)NC(=O)CNC(=O)[C@H](Cc1ccccc1)NC(=O)[C@H](CC(N)=O)NC(=O)[C@@H]1CCCN1C(=O)[C@H](CO)NC(=O)[C@H](CO)NC(=O)[C@H](Cc1c[nH]cn1)NC(=O)[C@H](CCCNC(=N)N)NC(=O)[C@H](CC(C)C)NC(=O)[C@H](Cc1ccccc1)NC(=O)[C@H](CCC(=O)O)NC(=O)[C@H](C)NC(=O)[C@H](CC(C)C)NC(=O)[C@H](CCCNC(=N)N)NC(=O)[C@H](CCC(N)=O)NC(=O)[C@@H](NC(=O)[C@H](C)NC(=O)[C@@H]1CSSC[C@H](NC(=O)[C@H](CCCCN)NC(=O)COCCOCCNC(=O)COCCOCCNC(=O)CC[C@H](NC(=O)CCCCCCCCCCCCCCCCCCC(=O)O)C(=O)O)C(=O)N[C@@H](CC(N)=O)C(=O)N[C@@H]([C@@H](C)O)C(=O)N[C@@H](C)C(=O)N[C@@H]([C@@H](C)O)C(=O)N1)[C@@H](C)O)C(=O)N1CCC[C@H]1C(=O)N[C@@H](CO)C(=O)N[C@@H](CO)C(=O)N[C@H](C(=O)N[C@@H](CC(N)=O)C(=O)N[C@H](C(=O)NCC(=O)N[C@@H](CO)C(=O)N[C@@H](CC(N)=O)C(=O)N[C@H](C(=O)N1CCC[C@H]1C(N)=O)[C@@H](C)O)C(C)C)[C@@H](C)O, also called compound 20) |
| 1.1 | 72 | {C20 diacid-γGlu}-KCNTATCATQRLAEFLRHSSPNFGAIPSSTNVGSNTP-NH2 (disulfide 2-7, also called compound 8) |
| 4.8 | 554 | {C20 diacid-γGlu}-KCNTATCATQRLAEFLRHSSPNFGAIPSSTNVGSHTY-NH2 (disulfide 2-7; SMILES CC[C@H](C)[C@H](NC(=O)[C@H](C)NC(=O)CNC(=O)[C@H](Cc1ccccc1)NC(=O)[C@H](CC(N)=O)NC(=O)[C@@H]1CCCN1C(=O)[C@H](CO)NC(=O)[C@H](CO)NC(=O)[C@H](Cc1c[nH]cn1)NC(=O)[C@H](CCCNC(=N)N)NC(=O)[C@H](CC(C)C)NC(=O)[C@H](Cc1ccccc1)NC(=O)[C@H](CCC(=O)O)NC(=O)[C@H](C)NC(=O)[C@H](CC(C)C)NC(=O)[C@H](CCCNC(=N)N)NC(=O)[C@H](CCC(N)=O)NC(=O)[C@@H](NC(=O)[C@H](C)NC(=O)[C@@H]1CSSC[C@H](NC(=O)[C@H](CCCCN)NC(=O)CC[C@H](NC(=O)CCCCCCCCCCCCCCCCCCC(=O)O)C(=O)O)C(=O)N[C@@H](CC(N)=O)C(=O)N[C@@H]([C@@H](C)O)C(=O)N[C@@H](C)C(=O)N[C@@H]([C@@H](C)O)C(=O)N1)[C@@H](C)O)C(=O)N1CCC[C@H]1C(=O)N[C@@H](CO)C(=O)N[C@@H](CO)C(=O)N[C@H](C(=O)N[C@@H](CC(N)=O)C(=O)N[C@H](C(=O)NCC(=O)N[C@@H](CO)C(=O)N[C@@H](Cc1c[nH]cn1)C(=O)N[C@H](C(=O)N[C@@H](Cc1ccc(O)cc1)C(N)=O)[C@@H](C)O)C(C)C)[C@@H](C)O, also called compound 18) |
| 1 | 82 | {C20 diacid-γGlu}-KCNTATCATQRLADFLRHSSPNFGAIPSSTNVGSNTP-NH2 (disulfide 2-7; SMILES CC[C@H](C)[C@H](NC(=O)[C@H](C)NC(=O)CNC(=O)[C@H](Cc1ccccc1)NC(=O)[C@H](CC(N)=O)NC(=O)[C@@H]1CCCN1C(=O)[C@H](CO)NC(=O)[C@H](CO)NC(=O)[C@H](Cc1c[nH]cn1)NC(=O)[C@H](CCCNC(=N)N)NC(=O)[C@H](CC(C)C)NC(=O)[C@H](Cc1ccccc1)NC(=O)[C@H](CC(=O)O)NC(=O)[C@H](C)NC(=O)[C@H](CC(C)C)NC(=O)[C@H](CCCNC(=N)N)NC(=O)[C@H](CCC(N)=O)NC(=O)[C@@H](NC(=O)[C@H](C)NC(=O)[C@@H]1CSSC[C@H](NC(=O)[C@H](CCCCN)NC(=O)CC[C@H](NC(=O)CCCCCCCCCCCCCCCCCCC(=O)O)C(=O)O)C(=O)N[C@@H](CC(N)=O)C(=O)N[C@@H]([C@@H](C)O)C(=O)N[C@@H](C)C(=O)N[C@@H]([C@@H](C)O)C(=O)N1)[C@@H](C)O)C(=O)N1CCC[C@H]1C(=O)N[C@@H](CO)C(=O)N[C@@H](CO)C(=O)N[C@H](C(=O)N[C@@H](CC(N)=O)C(=O)N[C@H](C(=O)NCC(=O)N[C@@H](CO)C(=O)N[C@@H](CC(N)=O)C(=O)N[C@H](C(=O)N1CCC[C@H]1C(N)=O)[C@@H](C)O)C(C)C)[C@@H](C)O, also called compound 10) |
| 4 | 970 | {C20 diacid-γGlu}-KCNTATCATQRLAEFLRHSSPNFGAIPSPTNVGSNTY-NH2 (disulfide 2-7; SMILES CC[C@H](C)[C@H](NC(=O)[C@H](C)NC(=O)CNC(=O)[C@H](Cc1ccccc1)NC(=O)[C@H](CC(N)=O)NC(=O)[C@@H]1CCCN1C(=O)[C@H](CO)NC(=O)[C@H](CO)NC(=O)[C@H](Cc1c[nH]cn1)NC(=O)[C@H](CCCNC(=N)N)NC(=O)[C@H](CC(C)C)NC(=O)[C@H](Cc1ccccc1)NC(=O)[C@H](CCC(=O)O)NC(=O)[C@H](C)NC(=O)[C@H](CC(C)C)NC(=O)[C@H](CCCNC(=N)N)NC(=O)[C@H](CCC(N)=O)NC(=O)[C@@H](NC(=O)[C@H](C)NC(=O)[C@@H]1CSSC[C@H](NC(=O)[C@H](CCCCN)NC(=O)CC[C@H](NC(=O)CCCCCCCCCCCCCCCCCCC(=O)O)C(=O)O)C(=O)N[C@@H](CC(N)=O)C(=O)N[C@@H]([C@@H](C)O)C(=O)N[C@@H](C)C(=O)N[C@@H]([C@@H](C)O)C(=O)N1)[C@@H](C)O)C(=O)N1CCC[C@H]1C(=O)N[C@@H](CO)C(=O)N1CCC[C@H]1C(=O)N[C@H](C(=O)N[C@@H](CC(N)=O)C(=O)N[C@H](C(=O)NCC(=O)N[C@@H](CO)C(=O)N[C@@H](CC(N)=O)C(=O)N[C@H](C(=O)N[C@@H](Cc1ccc(O)cc1)C(N)=O)[C@@H](C)O)C(C)C)[C@@H](C)O, also called compound 37) |
| 0.9 | 105 | {C20 diacid-γGlu}-KCNTATCATQRLAEFLRHSSPNFGAIPSSTNVGSDTP-NH2 (disulfide 2-7; SMILES CC[C@H](C)[C@H](NC(=O)[C@H](C)NC(=O)CNC(=O)[C@H](Cc1ccccc1)NC(=O)[C@H](CC(N)=O)NC(=O)[C@@H]1CCCN1C(=O)[C@H](CO)NC(=O)[C@H](CO)NC(=O)[C@H](Cc1c[nH]cn1)NC(=O)[C@H](CCCNC(=N)N)NC(=O)[C@H](CC(C)C)NC(=O)[C@H](Cc1ccccc1)NC(=O)[C@H](CCC(=O)O)NC(=O)[C@H](C)NC(=O)[C@H](CC(C)C)NC(=O)[C@H](CCCNC(=N)N)NC(=O)[C@H](CCC(N)=O)NC(=O)[C@@H](NC(=O)[C@H](C)NC(=O)[C@@H]1CSSC[C@H](NC(=O)[C@H](CCCCN)NC(=O)CC[C@H](NC(=O)CCCCCCCCCCCCCCCCCCC(=O)O)C(=O)O)C(=O)N[C@@H](CC(N)=O)C(=O)N[C@@H]([C@@H](C)O)C(=O)N[C@@H](C)C(=O)N[C@@H]([C@@H](C)O)C(=O)N1)[C@@H](C)O)C(=O)N1CCC[C@H]1C(=O)N[C@@H](CO)C(=O)N[C@@H](CO)C(=O)N[C@H](C(=O)N[C@@H](CC(N)=O)C(=O)N[C@H](C(=O)NCC(=O)N[C@@H](CO)C(=O)N[C@@H](CC(=O)O)C(=O)N[C@H](C(=O)N1CCC[C@H]1C(N)=O)[C@@H](C)O)C(C)C)[C@@H](C)O, also called compound 11) |
